Test results published in US20250136702A1, “HUMAN LIFR ANTIGEN BINDING PROTEIN, PREPARATION METHOD THEREFOR, AND APPLICATION THEREOF” (NONA BIOSCIENCES (SUZHOU) CO., LTD., priority 2020, published 2025).

Target: human LIFR expressed on the surface of 293T cells (human) (UniProt P42702)
Assay: flow cytometry on HEK293T-huLIFR cells, median fluorescence, span of the fitted curve

Sequence of human LIFR expressed on the surface of 293T cells (human) (P42702 45-1097): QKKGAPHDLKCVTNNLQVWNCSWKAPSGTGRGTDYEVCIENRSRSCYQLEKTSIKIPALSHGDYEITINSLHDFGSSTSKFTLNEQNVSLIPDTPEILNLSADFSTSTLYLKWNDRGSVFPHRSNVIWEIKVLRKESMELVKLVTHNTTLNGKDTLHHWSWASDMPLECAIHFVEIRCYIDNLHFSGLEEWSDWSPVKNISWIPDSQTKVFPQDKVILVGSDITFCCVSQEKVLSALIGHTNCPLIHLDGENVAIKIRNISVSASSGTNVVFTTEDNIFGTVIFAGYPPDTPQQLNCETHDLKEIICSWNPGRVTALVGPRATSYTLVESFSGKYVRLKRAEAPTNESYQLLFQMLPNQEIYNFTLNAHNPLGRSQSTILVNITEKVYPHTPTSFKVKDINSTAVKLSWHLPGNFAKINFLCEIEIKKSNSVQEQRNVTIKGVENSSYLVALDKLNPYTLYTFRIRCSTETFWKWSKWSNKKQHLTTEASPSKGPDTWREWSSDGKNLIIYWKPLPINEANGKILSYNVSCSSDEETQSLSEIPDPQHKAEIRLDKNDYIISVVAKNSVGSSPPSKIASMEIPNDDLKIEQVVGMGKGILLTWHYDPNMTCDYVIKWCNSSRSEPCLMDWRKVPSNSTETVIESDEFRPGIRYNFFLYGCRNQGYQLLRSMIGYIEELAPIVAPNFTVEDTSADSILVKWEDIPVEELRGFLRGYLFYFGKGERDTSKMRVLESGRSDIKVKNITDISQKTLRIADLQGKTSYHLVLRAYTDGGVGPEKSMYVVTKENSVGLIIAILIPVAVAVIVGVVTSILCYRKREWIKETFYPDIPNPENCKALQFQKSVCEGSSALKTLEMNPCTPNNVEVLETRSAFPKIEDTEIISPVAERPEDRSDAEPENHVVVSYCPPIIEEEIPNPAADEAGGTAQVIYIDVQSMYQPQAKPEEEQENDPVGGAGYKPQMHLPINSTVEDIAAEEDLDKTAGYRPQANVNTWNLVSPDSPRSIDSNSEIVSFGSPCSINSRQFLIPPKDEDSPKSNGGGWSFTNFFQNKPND

- Span: 237
B1: PR301127 (antibody, human IgG1, kappa, V domains shown)
VH: EVQLLQSGGGLVQPGGSLRLSCAASGFTFSNYAMTWVRQAPGKGLEWVSTISGSGAFTYYADAVKGRFTISRVNSKNSLDLQMNSLRAEDTAVYYCAKGGILTGFDNWGQGTLVTVSS
VL: DIQMTQSPSTLSASVGDRVTITCRASQSISSWLAWYQQKPGKAPKLLIYKASSLESGVPSRFSGSGSGTEFSFTISSLQPDDFATYYCQQYKSFSPGGLTFGGGTKVEIKR
